Data set [1] concerns HeLa Kyoto. Description: solubility change mitosis vs G1/S (difference of NP-40 vs SDS log2 ratios) (log2 ratio difference); higher = more soluble in mitosis.
Data set [2] relates to HeLa Kyoto. Description: melting temperature (median over replicates), in situ; higher = more thermally stable.
For data set [3], the system named is HeLa Kyoto. The data set can be described thus: thermal stability score vs G1/S (z-score of summed log2 fold changes over temperatures); higher = more thermally stable than in G1/S.
Data set [4] relates to HeLa Kyoto. Description: solubility in G1/S (NP-40 vs SDS abundance) (log2 ratio); higher = more soluble. The settings on record: cell cycle stage: G1/S.
Where [5] appears, read: cell cycle stage: early G1 (4.5 h after nocodazole release).
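Throughout, for melting temperature (median over replicates), in situ: HeLa Kyoto cells synchronized by double thymidine or nocodazole block, proteins quantified by TMT10plex mass spectrometry, three independent biological replicates.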
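Throughout, for solubility change mitosis vs G1/S (difference of NP-40 vs SDS log2 ratios): synchronized HeLa Kyoto cells (double thymidine block for G1/S, nocodazole release for mitosis), protein amounts in NP-40 versus SDS lysates quantified by mass spectrometry, three biological replicates.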
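Throughout, for solubility in G1/S (NP-40 vs SDS abundance): HeLa Kyoto cells arrested at G1/S by double thymidine block, proteins quantified by TMT10plex mass spectrometry in mild NP-40 versus SDS extracts, three biological replicates.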
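Throughout, for thermal stability score vs G1/S (z-score of summed log2 fold changes over temperatures): synchronized HeLa Kyoto cells, proteins quantified by TMT10plex mass spectrometry, three biological replicates, mitosis taken 0.5 h after nocodazole release, G1/S directly after double thymidine block.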

As for “MKPRPAGFVDNKLKQRVIQYLTSNKCGKYVDIGVLASDLQRVYSIDYGRRKRNAFRIQVEKVFSIISSEKELKNLTELEDEHLAKRARQGEEDNEYTESYSDDDSSMEDYPDPQSANHMNSSLLSLYRKGNPDSVSNTPEMEQRETTSSTPRISSKTGSIPLKTPAKDSEGGWFIDKTPSVKKDSFFLDLSCEKSNPKKPITEIQDSKDSSLLESDMKRKGKLKNKGSKRKKEDLQEVDGEIEAVLQKKAKARGLEFQISNVKFEDVGGNDMTLKEVCKMLIHMRHPEVYHHLGVVPPRGVLLHGPPGCGKTLLAHAIAGELDLPILKVAAPEIVSGVSGESEQKLRELFEQAVSNAPCIIFIDEIDAITPKREVASKDMERRIVAQLLTCMDDLNNVAATARVLVIGATNRPDSLDPALRRAGRFDREICLGIPDEASRERILQTLCRKLRLPQAFDFCHLAHLTPGFVGADLMALCREAAMCAVNRVLMKLQEQQKKNPEMEDLPSKGVQEERLGTEPTSETQDELQRLLGLLRDQDPLSEEQMQGLCIELNDFIVALSSVQPSAKREGFVTVPNVTWADIGALEDIREELTMAILAPVRNPDQFKALGLVTPAGVLLAGPPGCGKTLLAKAVANESGLNFISVKGPELLNMYVGESERAVRQVFQRAKNSAPCVIFFDEVDALCPRRSDRETGASVRVVNQLLTEMDGLEARQQVFIMAATNRPDIIDPAILRPGRLDKTLFVGLPPPADRLAILKTITKNGTKPPLDADVNLEAIAGDLRCDCYTGADLSALVREASICALRQEMARQKSGNEKGELKVSHKHFEEAFKKVRSSISKKDQIMYERLQESLSR [NVL]”, in the data set on HeLa Kyoto [1], the “solubility change mitosis (log2)” value is 0.882. The results for the melting temperature with HeLa Kyoto [2] (cell cycle stage: G1/S) and in the data set on HeLa Kyoto [2] (cell cycle stage: mitosis) were 53.8 °C and 52.7 °C, respectively. Further, the thermal stability score worked out at 1.41 in the data set on HeLa Kyoto [3] (setting [5]) and 1.19 with HeLa Kyoto [3] (cell cycle stage: mitosis). For the same sequence, the “solubility in G1/S (log2)” value with HeLa Kyoto [4] was -1.77.
Consider “MKRRLDDQESPVYAAQQRRIPGSTEAFPHQHRVLAPAPPVYEAVSETMQSATGIQYSVTPSYQVSAMPQSSGSHGPAIAAVHSSHHHPTAVQPHGGQVVQSHAHPAPPVAPVQGQQQFQRLKVEDALSYLDQVKLQFGSQPQVYNDFLDIMKEFKSQSIDTPGVISRVSQLFKGHPDLIMGFNTFLPPGYKIEVQTNDMVNVTTPGQVHQIPTHGIQPQPQPPPQHPSQPSAQSAPAPAQPAPQPPPAKVSKPSQLQAHTPASQQTPPLPPYASPRSPPVQPHTPVTISLGTAPSLQNNQPVEFNHAINYVNKIKNRFQGQPDIYKAFLEILHTYQKEQRNAKEAGGNYTPALTEQEVYAQVARLFKNQEDLLSEFGQFLPDANSSVLLSKTTAEKVDSVRNDHGGTVKKPQLNNKPQRPSQNGCQIRRHPTGTTPPVKKKPKLLNLKDSSMADASKHGGGTESLFFDKVRKALRSAEAYENFLRCLVIFNQEVISRAELVQLVSPFLGKFPELFNWFKNFLGYKESVHLETYPKERATEGIAMEIDYASCKRLGSSYRALPKSYQQPKCTGRTPLCKEVLNDTWVSFPSWSEDSTFVSSKKTQYEEHIYRCEDERFELDVVLETNLATIRVLEAIQKKLSRLSAEEQAKFRLDNTLGGTSEVIHRKALQRIYADKAADIIDGLRKNPSIAVPIVLKRLKMKEEEWREAQRGFNKVWREQNEKYYLKSLDHQGINFKQNDTKVLRSKSLLNEIESIYDERQEQATEENAGVPVGPHLSLAYEDKQILEDAAALIIHHVKRQTGIQKEDKYKIKQIMHHFIPDLLFAQRGDLSDVEEEEEEEMDVDEATGAVKKHNGVGGSPPKSKLLFSNTAAQKLRGMDEVYNLFYVNNNWYIFMRLHQILCLRLLRICSQAERQIEEENREREWEREVLGIKRDKSDSPAIQLRLKEPMDVDVEDYYPAFLDMVRSLLDGNIDSSQYEDSLREMFTIHAYIAFTMDKLIQSIVRQLQHIVSDEICVQVTDLYLAENNNGATGGQLNTQNSRSLLESTYQRKAEQLMSDENCFKLMFIQSQGQVQLTIELLDTEEENSDDPVEAERWSDYVERYMNSDTTSPELREHLAQKPVFLPRNLRRIRKCQRGREQQEKEGKEGNSKKTMENVDSLDKLECRFKLNSYKMVYVIKSEDYMYRRTALLRAHQSHERVSKRLHQRFQAWVDKWTKEHVPREMAAETSKWLMGEGLEGLVPCTTTCDTETLHFVSINKYRVKYGTVFKAP [SIN3A]”, for which, in the data set on HeLa Kyoto [1], the “solubility change mitosis (log2)” value was -0.073. Also, the melting temperature with HeLa Kyoto [2] (cell cycle stage: G1/S) stood at 48.4 °C; in the data set with HeLa Kyoto [2] (cell cycle stage: mitosis), 49.5 °C. Moreover, the thermal stability score with HeLa Kyoto [3] (setting [5]) is 1.76; in the data set with HeLa Kyoto [3] (cell cycle stage: mitosis), 4.27. Moreover, the “solubility in G1/S (log2)” value with HeLa Kyoto [4] was -0.136.
“MKRSGTLRLLSDLSAFGGAARLRELVAGDSAVRVRGSPDGRHLLLLRPPGAVAPQLLVASRGPGAELERAWPAGQPSPLDAFFLPWPARPALVLVWESGLAEVWGAGVGPGWRPLQSTELCPGGGARVVAVAALRGRLVWCEERQARAEGPSGSPAAAFSHCVCVRTLEPSGEASTSLGRTHVLLHHCPAFGLLASCRQLFLVPTATTWPGVAHVLLIWSPGKGKVMVAAPRLGLSYSKSLNPGRGDTWDFRTLLRGLPGLLSPREPLAVHTWAPTPQGLLLLDFGGTVSLLQSHGGTRAVGTLQEAPVGPWGSAALGTFQGTLACVLGSTLELLDMGSGQLLERKVLSTDRVHLLEPPAPGMEDEEELETRGNLRLLSALGLFCVGWEAPQGVELPSAKDLVFEEACGYYQRRSLRGAQLTPEELRHSSTFRAPQALASILQGHLPPSALLTMLRTELRDYRGLEQLKAQLVAGDDEEAGWTELAEQEVARLLRTELIGDQLAQLNTVFQALPTAAWGATLRALQLQLDGNGKLRSQAPPDVWKKVLGGITAGKEPPNGILPPFELLCQCLCQLEPRWLPPFVELAQQQGGPGWGAGGPGLPLYRRALAVLGEEGTRPEALELELLLSSGRPKAVLQAVGQLVQKEQWDRALDAGLALGPSSPLLRSEIFKLLLAEFAQHRRLDAHLPLLCRLCPPELAPAELLLLLRTYLPDEVGPPTPFPEPGAEPPLTVGLLKALLEQTGAQGWLSGPVLSPYEDILWDPSTPPPTPPRDL [HPS6]”: the “solubility change mitosis (log2)” value in the data set with HeLa Kyoto [1] was -0.149. For the same sequence, the melting temperature in the data set on HeLa Kyoto [2] (cell cycle stage: G1/S) turned out to be 49.3 °C; with HeLa Kyoto [2] (cell cycle stage: mitosis), 49.1 °C. Moreover, the thermal stability score is 0.139 in the data set on HeLa Kyoto [3] (setting [5]) and 0.929 in the data set on HeLa Kyoto [3] (cell cycle stage: mitosis). In addition, the “solubility in G1/S (log2)” value in the data set with HeLa Kyoto [4] was 0.12.

Values taken from the supplement of paper PMC5998384.
